Earlier results in patent US20220033450A1, “VIRALLY EXPRESSED INHIBITORS OF PDZ DOMAINS, SUCH AS PICK1 AND USES THEREOF” (University of Copenhagen, priority 2018, published 2022).

Molecular target: T1, PDZ3 of PSD-95 (Homo sapiens, UniProt P78352)
T1 construct: specificity towards PDZ3 over PDZ 1 and 2 in PSD-95 (Toto et al. 2016)
Conditions: Toto et al. 2016; 'supposedly'

T1 sequence (P78352 313-393 limits assumed): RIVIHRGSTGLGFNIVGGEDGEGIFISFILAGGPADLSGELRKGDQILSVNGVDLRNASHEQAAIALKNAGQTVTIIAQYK

YKQTSV
specificity towards PDZ3 over PDZ 1 and 2 in PSD-95: > 15 fold
